Measurements reported in article PMC8677511.

Target: TDP-43 recombinant (rTDP-43) (UniProt Q13148 1-414)
Test: pull-down

Chain of TDP-43 recombinant (rTDP-43) (Q13148 whole entry): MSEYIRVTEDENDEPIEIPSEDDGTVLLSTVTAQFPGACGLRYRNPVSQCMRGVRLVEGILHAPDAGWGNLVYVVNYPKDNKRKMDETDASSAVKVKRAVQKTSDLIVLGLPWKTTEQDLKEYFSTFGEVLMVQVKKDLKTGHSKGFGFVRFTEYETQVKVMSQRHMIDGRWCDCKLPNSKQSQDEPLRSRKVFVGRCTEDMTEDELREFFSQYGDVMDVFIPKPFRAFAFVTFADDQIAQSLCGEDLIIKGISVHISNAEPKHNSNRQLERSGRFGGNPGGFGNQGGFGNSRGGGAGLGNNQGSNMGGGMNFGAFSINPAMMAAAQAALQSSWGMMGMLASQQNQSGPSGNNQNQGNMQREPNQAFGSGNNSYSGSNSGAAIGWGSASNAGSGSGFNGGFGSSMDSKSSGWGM

B1: G3BP1 3' UTR probe (nt334-358) (ssRNA)
RNA: UUUUUUGUGUGUUAAUGGUGUGUG
binding result: binds

B2: GRN (nt262-288) probe (ssRNA)
RNA: UGUGUGUGUGUGCGCGUGUGCGUGUG
binding result: binds

B3: (AC)12 (ssRNA)
RNA: ACACACACACACACACACACACAC
binding result: no binding
